{"source": "the MegaScale stability set (Tsuboyama et al. 2023)", "parents": {"B1": {"name": "HHH_rd1_0493 (parent)", "chain": "RDEDEKEKIKEALKRGNEDKAKEIAKRANVSPEEYERLRKEAE"}}, "data": [{"variants_of": "B1", "experiment": "folding stability dG (cDNA display proteolysis); higher = more stable", "settings": "PBS, room temperature", "units": {"folding stability dG": "kcal/mol"}, "values": [{"variant": "RDEDEKEKIKEALKRGNEDKAKEIHKRANVSPEEYERLRKEAE", "note": "[A25H]", "folding stability dG": 0.547}, {"variant": "RDEDEKEKIKEALKRGNEDKAKEICKRANVSPEEYERLRKEAE", "note": "[A25C]", "folding stability dG": 1.54}, {"variant": "RDEDEKEKIKEALKRGNEDKAKEIGKRANVSPEEYERLRKEAE", "note": "[A25G]", "folding stability dG": 1.3}, {"variant": "RDEDEKEKIKEALKRGNEDKAKEIFKRANVSPEEYERLRKEAE", "note": "[A25F]", "folding stability dG": 0.695}, {"variant": "RDEDEKEKIKEALKRGNEDKAKEIDKRANVSPEEYERLRKEAE", "note": "[A25D]", "folding stability dG": 0.442}, {"variant": "RDEDEKEKIKEALKRGNEDKAKEIEKRANVSPEEYERLRKEAE", "note": "[A25E]", "folding stability dG": 0.618}, {"variant": "RDEDEKEKIKEALKRGNEDKAKSIAKRANVSPEEYERLRKEAE", "note": "[E23S]", "folding stability dG": 2.42}, {"variant": "RDEDEKEKIKEALKRGNEDKAKCIAKRANVSPEEYERLRKEAE", "note": "[E23C]", "folding stability dG": 2.49}, {"variant": "RDEDEKEKIKEALKRGNEDKAKKIAKRANVSPEEYERLRKEAE", "note": "[E23K]", "folding stability dG": 2.26}, {"variant": "RDEDEKEKIKEALKRGNEDKAKQIAKRANVSPEEYERLRKEAE", "note": "[E23Q]", "folding stability dG": 2.73}, {"variant": "RDEDEKEKIKEALKRGNEDKAKAIAKRANVSPEEYERLRKEAE", "note": "[E23A]", "folding stability dG": 2.87}, {"variant": "RDEDEKEKIKEALKRGNEDKAKDIAKRANVSPEEYERLRKEAE", "note": "[E23D]", "folding stability dG": 2.56}, {"variant": "RDEDEKEKIKEALKRGNEDKAKTIAKRANVSPEEYERLRKEAE", "note": "[E23T]", "folding stability dG": 2.22}, {"variant": "RDEDEKEKIKEALKRGNEDKAKFIAKRANVSPEEYERLRKEAE", "note": "[E23F]", "folding stability dG": 1.7}, {"variant": "RDEDEKEKIKEALKRGNEDKAKWIAKRANVSPEEYERLRKEAE", "note": "[E23W]", "folding stability dG": 1.79}, {"variant": "RDEDEKEKIKEALKRGNEDKAKYIAKRANVSPEEYERLRKEAE", "note": "[E23Y]", "folding stability dG": 1.79}, {"variant": "RDEDEKEKIKEALKRGNEDKAKIIAKRANVSPEEYERLRKEAE", "note": "[E23I]", "folding stability dG": 2.35}, {"variant": "RDEDEKEKIKEALKRGNEDKAKGIAKRANVSPEEYERLRKEAE", "note": "[E23G]", "folding stability dG": 1.92}, {"variant": "RDEDEKEKIKEALKRGNEDKAKRIAKRANVSPEEYERLRKEAE", "note": "[E23R]", "folding stability dG": 2.39}, {"variant": "RDEDEKEKIKEALKRGNEDKAKNIAKRANVSPEEYERLRKEAE", "note": "[E23N]", "folding stability dG": 2.02}, {"variant": "RDEDEKEKIKEALKRGNEDKAKLIAKRANVSPEEYERLRKEAE", "note": "[E23L]", "folding stability dG": 2.16}, {"variant": "RDEDEKEKIKEALKRGNEDKAKMIAKRANVSPEEYERLRKEAE", "note": "[E23M]", "folding stability dG": 2.33}, {"variant": "RDEDEKEKIKEALKRGNEDKAKVIAKRANVSPEEYERLRKEAE", "note": "[E23V]", "folding stability dG": 2.17}, {"variant": "RDEDEKEKIKEALKRGNEDKAKHIAKRANVSPEEYERLRKEAE", "note": "[E23H]", "folding stability dG": 1.96}, {"variant": "RDEDEKEKIKEALKRGNEDKAKPIAKRANVSPEEYERLRKEAE", "note": "[E23P]", "folding stability dG": 0.537}, {"variant": "RDEDEKEKIKEALKRGNEDKAGEIAKRANVSPEEYERLRKEAE", "note": "[K22G]", "folding stability dG": 1.64}, {"variant": "RDEDEKEKIKEALKRGNEDKAFEIAKRANVSPEEYERLRKEAE", "note": "[K22F]", "folding stability dG": 2.31}, {"variant": "RDEDEKEKIKEALKRGNEDKAWEIAKRANVSPEEYERLRKEAE", "note": "[K22W]", "folding stability dG": 2.75}, {"variant": "RDEDEKEKIKEALKRGNEDKAPEIAKRANVSPEEYERLRKEAE", "note": "[K22P]", "folding stability dG": 0.613}, {"variant": "RDEDEKEKIKEALKRGNEDKAYEIAKRANVSPEEYERLRKEAE", "note": "[K22Y]", "folding stability dG": 2.11}, {"variant": "RDEDEKEKIKEALKRGNEDKATEIAKRANVSPEEYERLRKEAE", "note": "[K22T]", "folding stability dG": 2.24}, {"variant": "RDEDEKEKIKEALKRGNEDKAREIAKRANVSPEEYERLRKEAE", "note": "[K22R]", "folding stability dG": 3.21}, {"variant": "RDEDEKEKIKEALKRGNEDKAMEIAKRANVSPEEYERLRKEAE", "note": "[K22M]", "folding stability dG": 3.03}, {"variant": "RDEDEKEKIKEALKRGNEDKAHEIAKRANVSPEEYERLRKEAE", "note": "[K22H]", "folding stability dG": 2.46}, {"variant": "RDEDEKEKIKEALKRGNEDKAQEIAKRANVSPEEYERLRKEAE", "note": "[K22Q]", "folding stability dG": 2.86}, {"variant": "RDEDEKEKIKEALKRGNEDKAIEIAKRANVSPEEYERLRKEAE", "note": "[K22I]", "folding stability dG": 2.8}, {"variant": "RDEDEKEKIKEALKRGNEDKAVEIAKRANVSPEEYERLRKEAE", "note": "[K22V]", "folding stability dG": 2.44}, {"variant": "RDEDEKEKIKEALKRGNEDKANEIAKRANVSPEEYERLRKEAE", "note": "[K22N]", "folding stability dG": 2.11}, {"variant": "RDEDEKEKIKEALKRGNEDKALEIAKRANVSPEEYERLRKEAE", "note": "[K22L]", "folding stability dG": 3.1}, {"variant": "RDEDEKEKIKEALKRGNEDKASEIAKRANVSPEEYERLRKEAE", "note": "[K22S]", "folding stability dG": 2.2}, {"variant": "RDEDEKEKIKEALKRGNEDKAKENAKRANVSPEEYERLRKEAE", "note": "[I24N]", "folding stability dG": 0.704}, {"variant": "RDEDEKEKIKEALKRGNEDKAKEKAKRANVSPEEYERLRKEAE", "note": "[I24K]", "folding stability dG": 0.623}, {"variant": "RDEDEKEKIKEALKRGNEDKAKEYAKRANVSPEEYERLRKEAE", "note": "[I24Y]", "folding stability dG": 1.73}, {"variant": "RDEDEKEKIKEALKRGNEDKAKEFAKRANVSPEEYERLRKEAE", "note": "[I24F]", "folding stability dG": 1.48}, {"variant": "RDEDEKEKIKEALKRGNEDKAKECAKRANVSPEEYERLRKEAE", "note": "[I24C]", "folding stability dG": 1.77}, {"variant": "RDEDEKEKIKEALKRGNEDKAKEEAKRANVSPEEYERLRKEAE", "note": "[I24E]", "folding stability dG": 1.16}, {"variant": "RDEDEKEKIKEALKRGNEDKAKEDAKRANVSPEEYERLRKEAE", "note": "[I24D]", "folding stability dG": 0.95}, {"variant": "RDEDEKEKIKEALKRGNEDKAKEQAKRANVSPEEYERLRKEAE", "note": "[I24Q]", "folding stability dG": 1.13}, {"variant": "RDEDEKEKIKEALKRGNEDKAKEMAKRANVSPEEYERLRKEAE", "note": "[I24M]", "folding stability dG": 2.13}, {"variant": "RDEDEKEKIKEALKRGNEDKAKEHAKRANVSPEEYERLRKEAE", "note": "[I24H]", "folding stability dG": 1.67}, {"variant": "RDEDEKEKIKEALKRGNEDKAKEAAKRANVSPEEYERLRKEAE", "note": "[I24A]", "folding stability dG": 1.47}, {"variant": "RDEDEKEKIKEALKRGNEDKAKETAKRANVSPEEYERLRKEAE", "note": "[I24T]", "folding stability dG": 1.32}, {"variant": "RDEDEKEKIKEALKRGNEDKAKEGAKRANVSPEEYERLRKEAE", "note": "[I24G]", "folding stability dG": 0.729}, {"variant": "RDEDEKEKIKEALKRGNEDKAKEWAKRANVSPEEYERLRKEAE", "note": "[I24W]", "folding stability dG": 1.34}, {"variant": "RDEDEKEKIKEALKRGNEDKAKELAKRANVSPEEYERLRKEAE", "note": "[I24L]", "folding stability dG": 2.8}, {"variant": "RDEDEKEKIKEALKRGNEDKAKEPAKRANVSPEEYERLRKEAE", "note": "[I24P]", "folding stability dG": 0.59}, {"variant": "RDEDEKEKIKEALKRGNEDKAKESAKRANVSPEEYERLRKEAE", "note": "[I24S]", "folding stability dG": 0.921}, {"variant": "RDEDEKEKIKEALKRGNEDKAKERAKRANVSPEEYERLRKEAE", "note": "[I24R]", "folding stability dG": 1.04}, {"variant": "RDEDEKEKIKEALKRGNEDKAKEVAKRANVSPEEYERLRKEAE", "note": "[I24V]", "folding stability dG": 1.87}]}]}
